Patent US20250277031A1 (BEIJING HANMI PHARMACEUTICAL, published 2025)

T1: recombinant human CD86 (ACROBiosystems) (human, UniProt P42081 26-247, limits assumed)
T1 construct: counted here as a B7 family member
T1 sequence (looked up): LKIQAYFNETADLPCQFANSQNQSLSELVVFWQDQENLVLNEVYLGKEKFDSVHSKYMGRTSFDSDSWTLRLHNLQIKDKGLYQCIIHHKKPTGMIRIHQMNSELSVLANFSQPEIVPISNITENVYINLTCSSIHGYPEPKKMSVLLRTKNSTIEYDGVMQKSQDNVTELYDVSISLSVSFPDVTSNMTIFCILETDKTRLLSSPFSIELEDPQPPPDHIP

T2: recombinant human B7-H2 (ACROBiosystems) (human, UniProt O75144 19-258, limits assumed)
T2 construct: counted here as a B7 family member
T2 sequence (looked up): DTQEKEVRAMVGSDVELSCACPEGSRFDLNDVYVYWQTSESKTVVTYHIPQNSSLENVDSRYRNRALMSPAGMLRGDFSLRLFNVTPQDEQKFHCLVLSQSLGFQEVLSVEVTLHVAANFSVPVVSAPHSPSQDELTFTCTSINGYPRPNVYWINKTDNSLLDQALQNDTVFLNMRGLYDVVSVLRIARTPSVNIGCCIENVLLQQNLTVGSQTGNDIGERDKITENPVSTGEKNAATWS


Tests used:
[1] = molecular target: T1, recombinant human CD86 (ACROBiosystems); assay: ELISA, coated recombinant protein
Procedure: (§1) Binding specificity of the chimeric anti-human CD47 mAbs was determined by ELISA. A 96-well high-adsorption ELISA plate was coated with 1 μg/mL of the recombinant human PD1, CD28, CTLA4, ICOS, BTLA, CD47, PD-L2, CD80, CD86, B7-H2, CD47, SIRPα and SIRPγ (all from ACROBiosystems), at 100 μL per well using carbonate buffer solution, pH=9.6 at 4° C. overnight. The plate was washed 5 times with PBST, and then blocked using PBST with 1% BSA, 300 μL/well, and incubated at 25° C. for 1 hour, and then washed 5 times with PBST. The chimeric anti-human CD47 mAb samples serially diluted in PBST with 1% BSA and the control CC-90002 and the isotype control were added, 100 μL/well, incubated at 25° C. for 1 hour, and then washed 5 times with PBST. The horseradish peroxidase-labeled anti-human IgG antibody (Chemicon, catalog number AP309P) diluted 1:10000 in PBST with 1% BSA was then added, 100 μL per well, and incubated at 25° C. for 1 hour. The plate was washed 5 times with PBST. The colorimetric substrate TMB was added, 100 μL/well, and developed at room temperature for 10 minutes. 1M H₂SO₄ was added, 100 μL/well, to stop the development. The absorbance at 450 nm was read on a microplate reader.

[2] = molecular target: T2, recombinant human B7-H2 (ACROBiosystems); assay: ELISA, coated recombinant protein
Procedure: as §1

[3] = molecular target: recombinant human SIRPγ (ACROBiosystems) (human, UniProt Q9P1W8 29-360, limits assumed); assay: ELISA, coated recombinant protein
Procedure: as §1

recombinant human CD47 [4] = molecular target: T3, recombinant human CD47 (human, UniProt Q08722 19-139); assay: ELISA, plate coated with 1 µg/mL recombinant human CD47, OD450
T3 construct: also called antigen CD47
Procedure: A 96-well high-adsorption ELISA plate was coated with 1 μg/mL of the recombinant human CD47 (Sino Biological Inc.) at 100 μL per well using carbonate buffer solution, pH=9.6 at 4° C. overnight. The plate was washed 5 times with PBST, and then blocked using PBST with 1% BSA, 300 μL/well, and incubated at 25° C. for 1 hour, and then washed 5 times with PBST. The anti-human CD47 antibody samples and the control CC-90002 (a patent sequence from WO2016109415) were added, 100 μL/well, incubated at 25° C. for 1 hour, and then washed 5 times with PBST. The horseradish peroxidase-labeled anti-mouse IgG antibody (Abcam, catalog number Ab7068) diluted 1:10000 in PBST with 1% BSA was then added, 100 μL per well, and incubated at 25° C. for 1 hour. The plate was washed 5 times with PBST. The colorimetric substrate TMB was added, 100 μL/well, and developed at room temperature for 10 minutes. 1M H₂SO₄ was added, 100 μL/well, to stop the development. The absorbance at 450 nm was read on a microplate reader.

[5] = molecular target: T4, recombinant human CD47-Fc protein (ACROBiosystems, catalog number CD7-H52A5) (human, UniProt Q08722 19-139); assay: blocking ELISA: plate coated with human CD47-Fc, 2 nM biotin-labelled SIRPα as the blocked ligand, falling OD450 curve; the sheet labels the half-maximal value EC50
T4 construct: bought; not shown: Fc part of a bought fusion protein, not described
Procedure: A 96-well high-adsorption ELISA plate was coated with 1 μg/mL of the recombinant human CD47-Fc (ACROBiosystems) at 100 μL per well using carbonate buffer solution, pH=9.6 at 4° C. overnight. The plate was washed 5 times with PBST, and then blocked using PBST with 1% BSA, 300 μL/well, and incubated at 25° C. for 1 hour, and then washed 5 times with PBST. The anti-human CD47 antibody samples were added, 50 μL/well, the biotin-labelled SIRPα (ACROBiosystems) was added at a concentration of 4 nM (a final concentration of 2 nM), 50 μL/well, incubated at 25° C. for 90 minutes, and then washed 5 times with PBST. The Streptavidin-HRP (BD Pharmingen, catalog number 554066) diluted 1:1000 in PBST with 1% BSA was then added, 100 μL per well, and incubated at 25° C. for 1 hour. The plate was washed 5 times with PBST. The colorimetric substrate TMB was added, 100 μL/well, and developed at room temperature for 10 minutes. 1M H₂SO₄ was added, 100 μL/well, to stop the development. The absorbance at 450 nm was read on a microplate reader.

recombinant human CD47 [6] = molecular target: T3, recombinant human CD47; assay: SPR, Biacore X100, antibody captured on Protein A chip, CD47 as analyte
Description: Biacore X100 instrument (purchased from GE) was used to detect the kinetic constant of the chimeric anti-human CD47 monoclonal antibodies binding to its antigen human CD47. This instrument utilizes optical surface plasmon resonance technology to detect the association and dissociation between the molecules coated on the biochip and the molecules to be tested. The main reagent used is Protein A chip (GE Healthcare, 29-1275-57). The experimental procedure is briefly described as follows: the chimeric anti-human CD47 antibodies were diluted in running buffer (1×HBS-EP+10 mM HEPES, 150 mM NaCl, 3 mM EDTA, 0.05% surfactant P20, pH7.4). During the capture-binding phase, the antibodies at a concentration of 2 μg/mL were injected for 60 seconds at a speed of 10 μL/min. During the binding phase, the antigen CD47 was diluted into multiple concentrations with running buffer, injected for 120 seconds at a speed of 30 μL/min respectively. During the dissociation phase, running buffer was injected for 600 seconds at a speed of 10 μL/min. The regeneration condition is 10 mM glycinate solution, pH1.5. Association kinetic constants and dissociation kinetic constants were analyzed and calculated by Biacore X100 evaluation software. The association kinetic constants, dissociation kinetic constants and dissociation equilibrium constants of the chimeric anti-human CD47 antibodies were shown in Table 7.

T3 sequence (Q08722 19-139 limits assumed): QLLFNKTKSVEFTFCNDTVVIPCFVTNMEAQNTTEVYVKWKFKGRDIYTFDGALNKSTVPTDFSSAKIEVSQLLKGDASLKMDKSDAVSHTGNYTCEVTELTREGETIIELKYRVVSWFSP
Sequence of recombinant human SIRPγ (ACROBiosystems) (Q9P1W8 29-360 limits assumed): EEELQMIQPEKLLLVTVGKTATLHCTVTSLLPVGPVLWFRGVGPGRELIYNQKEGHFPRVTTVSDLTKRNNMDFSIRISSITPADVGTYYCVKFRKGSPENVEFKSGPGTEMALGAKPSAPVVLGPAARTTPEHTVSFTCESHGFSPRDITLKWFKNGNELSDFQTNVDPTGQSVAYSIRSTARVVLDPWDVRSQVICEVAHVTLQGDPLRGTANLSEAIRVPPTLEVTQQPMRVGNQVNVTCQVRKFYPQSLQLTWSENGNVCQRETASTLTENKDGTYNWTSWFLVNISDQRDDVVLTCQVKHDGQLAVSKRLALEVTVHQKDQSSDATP
T4 sequence (Q08722 19-139 limits assumed): as the sequence (Q08722 19-139 limits assumed) above

binding result [1] | binding result [2] | binding result [3] | EC50 (recombinant human CD47 [4]) [nM] | IC50 [5] [nM] | Kd (recombinant human CD47 [6]) [nM] | koff (recombinant human CD47 [6]) [s⁻¹] | kon (recombinant human CD47 [6]) [M⁻¹ s⁻¹] | Binder
no binding | no binding | no binding | 0.026 | 1.75 |  |  |  | chimeric anti-human CD47 monoclonal antibody mAb-18-5 N297A (antibody, human IgG1, kappa, N297A, no further substitution applied) heavy: not shown light: DIVMTQSQKFMSTSVGDRVSITCKASQNVRTSIAWYQQKSGQSPKTLIYLASNRHTGVPDRFTGSGSGTDFTLTISNVQSEDLADYFCLQHWNYPFTFGSGTKLEIKRTVAAPSVFIFPPSDEQLKSGTASVVCLLNNFYPREAKVQWKVDNALQSGNSQESVTEQDSKDSTYSLSSTLTLSKADYEKHKVYACEVTHQGLSSPVTKSFNRGEC
no binding | no binding | no binding | 0.026 | 1.64 | 1.02 | 0.00101 | 994000 | chimeric anti-human CD47 monoclonal antibody mAb-18-10 (antibody, human IgG1, kappa) heavy: not shown light: DIVMTQSQKFMSTSVGDRVSITCKASQNVRTSIAWYQQKPGQSPKTLIYLASNRHTGVPDRFTGSGSGTDFTLTISNVQSEDLADYFCLQHWNYPFTFGSGTKLEIKRTVAAPSVFIFPPSDEQLKSGTASVVCLLNNFYPREAKVQWKVDNALQSGNSQESVTEQDSKDSTYSLSSTLTLSKADYEKHKVYACEVTHQGLSSPVTKSFNRGEC
